Source: US20060020109A1 (Harvard, published 2006)

T1: soluble recombinant HLA-DR2 molecules (MHC class II HLA-DR2 protein) (human)
T1 chain 1: not shown
T1 chain 2: not shown

B1: synthetic peptide #107 (peptide)
peptide: ENPVVHYFKNIVTPR
notes: Analog of MBP 85-99 with F to Y at the position of MBP residue 91

How the values were obtained:
[1] = target: soluble recombinant HLA-DR2 molecules (MHC class II HLA-DR2 protein) (human); assay: competition ELISA on soluble HLA-DR2; competitor biotinylated Cop 1 (1.5 µM)
[2] = target: soluble recombinant HLA-DR2 molecules (MHC class II HLA-DR2 protein) (human); assay: competition ELISA on soluble HLA-DR2; competitor biotinylated MBP 85-99 (0.13 µM)
[3] = target: HLA-DR2 (DRB1*1501) on antigen presenting cells (MGAR, L466) (human); assay: cell-based or functional assay
[4] = target: T1, soluble recombinant HLA-DR2 molecules …; assay: competition ELISA on soluble HLA-DR2; competitor biotinylated Cop 1 (1.5 µM); conditions: remark: other sources report otherwise
[5] = target: T2, soluble recombinant HLA-DR2 molecules (MHC class II HLA-DR2 protein) (human); assay: as above
T2 construct: Soluble, empty protein from Drosophila S2 cells, captured on plates by antibody LB3.1; also called MHC class II DR2 protein; recombinant HLA-DR2 protein

[6] = target: T2, soluble recombinant HLA-DR2 molecules …; assay: competition ELISA on soluble HLA-DR2; competitor biotinylated MBP 85-99 (0.13 µM)

| Molecule | IC50 [1] [µM] | IC50 [2] [µM] | Inhibition of IL-2 production (%), Hy1B [3] [%] | IC50 [4] [µM] | IC50 [5] [µM] | IC50 [6] [µM] |
| --- | --- | --- | --- | --- | --- | --- |
| Cop 1 (Copolymer 1; poly(Y,E,A,K); Copaxone), unlabeled | 7 | 100 | – | – | – | – |
| AEKAYAAAAAAAAAA [synthetic peptide #43] | – | – | 0 | > 1000 | – | – |
| AKEAAAAYAAAAAAA [synthetic peptide #45] | – | – | 0 | – | > 150 | 95 |
| AEKAYAAYAAAAAAA [synthetic peptide #52] | – | – | 20 | – | > 150 | 150 |
| AAKAYEAYKAAAAAA [synthetic peptide #93] | – | – | 48 | – | > 150 | 8 |
| AAEAYKAYKAAAAAA [synthetic peptide #94] | – | – | 50 | – | > 150 | 3 |
| EAKAYEAYKAAAAAA [synthetic peptide #95] | – | – | 47 | – | > 1000 | 40 |
| EAEAYKAYKAAAAAA [synthetic peptide #96] | – | – | 43 | – | > 1000 | 6 |
| EAAAYKAYKAAAAAA [synthetic peptide #99] | – | – | 57 | – | > 150 | 5 |
| EAAKYEAYKAAAAAA [synthetic peptide #100] | – | – | 56 | – | 2 | > 150 |
| EKAKYEAYKAAAAAA [synthetic peptide #101] | – | – | 53 | – | < 1 | 3 |
| EAKKYEAYKAAAAAA [synthetic peptide #102] | – | – | 57 | – | 2 | 20 |
| AAEKYAEYKAAAAAA [synthetic peptide #104] | – | – | 53 | – | 20 | > 150 |
| AKKAAEAYAAAAAAA [synthetic peptide #50] | – | – | 22 | – | 40 | 10 |
| AEEAYKAYAAAAAAA [synthetic peptide #53] | – | – | 13 | – | > 150 | 150 |
| AKAAYEAYAAAAAAA [synthetic peptide #64] | – | – | 18 | – | > 1000 | – |
| AKKEYAEYKAAAAAA [synthetic peptide #103] | – | – | 49 | – | < 1 | > 150 |
| B1 | – | – | 64 | – | 40 | < 1 |
| KEEYAAAAAAAAAAA [synthetic peptide #42] | – | – | 49 | – | > 1000 | – |
| EEKAYAYAKAAAAAA [synthetic peptide #106] | – | – | 39 | – | 100 | > 1000 |
| EEAAYAYKKAAAAAA [synthetic peptide #112] | – | – | 32 | – | 15 | > 1000 |
| EAKAYEYAKAAAAAA [synthetic peptide #113] | – | – | 30 | – | < 1 | > 1000 |
| EEAAYKAAKAAAAAA [synthetic peptide #108] | – | – | – | – | 2 | > 1000 |
| EEAAYKAAKAAAAAA [synthetic peptide #111] | – | – | – | – | < 1 | > 1000 |
